System: MS2 coat protein
Experiment: apparent KD of MS2 coat protein; higher = weaker reporter binding
Settings: Eterna round: R107
Procedure, shortened: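 Apparent KD was obtained for each design as the median of normalised binding-curve fits over its clusters. RNA switches transcribed on-chip from Illumina sequencing clusters were titrated with SNAP-549-labelled MS2 coat protein (twofold steps, 0.7 or 1.5 nM to 3 µM) in 100 mM Tris-HCl pH 7.5, 80 mM KCl, 4 mM MgCl2, without or with constant ligand.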

[1] = input ligand: theophylline 20 uM
[2] = input ligand: tryptophan 2.4 mM
[3] = input ligand: theophylline 2 mM

Sequence | apparent KD of MS2 coat protein (input ligand: arginine 13.2 mM) [nM] | apparent KD of MS2 coat protein [1] [nM] | apparent KD of MS2 coat protein [2] [nM] | apparent KD of MS2 coat protein [3] [nM] | apparent KD of MS2 coat protein (input ligand: none) [nM]
UGACAUUGCUCAGAUACCAGACAUGAGGAUCACCCAUGUACCAAGGUACGAAAAUAACAUGUCCCUUGGCAGCUGAGCAAUGUCU [First try 2 #MS2Left #Theo2] | 16.7 | 27.6 | 12.4 | – | –
UGACAUUGCUCAGAUACCAGACGUGAGCAUCAGCCAUGUGCCAACAAGUACAAAAUAAAUGUCCCUUGGCAGCUGAGCAAUGUCU [TheoBX 22 #MS2Left #AlternativeMS2 #Theo22] | 18.5 | 23.4 | 16.9 | 175 | –
UGACAUUGCUCAGAUACCAGACGUGAGGAUCACCCACGUGCCAACAAGUACAAAAUAAAUGUCCCUUGGCAGCUGAGCAAUGUCU [TheoBX 26 #MS2Left #AlternativeMS2 #Theo22] | 9.64 | 12.7 | 10.9 | 14.1 | 9.95
UGACAUUGCUGCGAUACCAGACAUGAGGAUCACCCAUGUACCAAGGUAAGAAAAUAACAUGUCCCUUGGCAGCGCAGCAAUGUCU [MAT - Exclusion Theophlline B - Mod of Eli - D1] | 18.9 | 40.2 | 14.4 | – | –
UGACGAUACCUGGAUACCAGCGACAUGAGGAUCACCCAUGUAUGAGGAUCAGCCAUGAUAUGCCCUUGGCAGCCACGAAAGUCUU [VUVMULLIN] | 16.8 | 27.5 | 18.6 | 150 | 15.8
UGAGAGACCAGAAGGAGCGACAUGAGGAUCACCCAUGUCUCCCGUUAUGGGAGUUCUUUAGGUCAGGUAGGUCGCUGGUCUCUCA [#1 Exclusion - Arginine B Attempt #8 (Inspired by Omei)] | 59.9 | 120 | 87.8 | 149 | 132
UGAGUUCGCUGAUGGGCUAAGUCAGGUGAUACCAGCCACUCCCGCGGCCCUUGGCAGCACAUGAGGAUCACCCAUGUAGAACUUG [Vexetela] | 16 | 31.1 | 20.2 | 374 | 18.4
UGAUCCUGCAGGGAUACCAGCGCCGCUUGAUAACUGUGCACAUGAGGAUCACCCAUGUAGCGCCCUUGGCAGCCCAGCUAGAGGG [Same State Theophylline B GF23] | 21.8 | 33.7 | 28.3 | – | –
UGAUGGAACGGAAGGAGCGUGUAAGAACAAGAACAUGAGGAUCACCCAUGUAUUAAUUUAACACAGGUAGGUCGCCGAGAUAUUG [11.E] | 19.8 | 23.1 | 13.5 | 17.3 | 14.5
UGCCGAGACGUGGAUUACCCGUGUACCGAAGGAGCGCCCGAAAGGGCAGGUAGGUCGCGGAGGACAUGAGGAUCACCCAUGUUUA | 202 | 55 | 55.7 | 79.8 | 56.3
UGCUACAUGAGGAUCACCCAUGUGGGUGAUACCAGCAUUCGUUAAUGCCCUUGGCAGCGCAGCCGAACCAUUCAUUCGGCAGAUC [Laxeor] | 36.2 | 214 | 328 | 382 | 125
UGGAGUAGGGUAAAUAGGAUAAGUACAGAAGGAGCGCGAAUAAACGCAGGUAGGUCGCUGGAACACAUGAGGAUCACCCAUGUUG [Same State Arginine A GF 24] | 20.9 | 26.2 | 25.4 | 17.8 | 25.4
UGGAGUAUCAGACAUGAGGAUCACCCAUGUCGAGGACCGGUACGGCCGCCACUCGGCAGUUUGCGUCCUCAGGUACUCCGGGUAA [Edlatearis] | 16.8 | 26.9 | 27.7 | 15.3 | 11.2
UGGGAAGGAGGAAGGAGCGCCAUAAGGGUGACAGUCUGGGUACAUGAGGAUCACCCAUGUAGGCAGGUAGGUCGCCUAGCUCUCA [XArg-B16] | 9.4 | 12.9 | 9.56 | 12.9 | 9.14
UGGGCAUACAUGAGGAUCACCCAUGUAGAUACCAGCACUAGCCUGUGCCCUUGGCAGCUAACCGGGUCGAGAACUUAGUGCUCCU [Lexele] | 10.9 | 21.9 | 11.5 | – | –
UGGGUAGCAUAGAUUGAUAGCUACACUGAAGGAGCGAGGAUAACCUCAGGUAGGUCGCAGACAUGAGGAUCACCCAUGUAGAUGG [Same State Arginine A GF17] | 77.7 | 174 | 209 | 252 | 254
UGGUACAUGAGGAUCACCCAUGUUCCAGAUACCAGUGUCCCGGUGCACCCUUGGCAGCUGGUGGUACAUGAGGAUCACCCAUGUG [Exclusion Theophylline A GF13] | 17.9 | 56.3 | 37.3 | 73.1 | 42.2
UGGUACUAGGCGGCCGCCACUGGGAGAUACAUGAGGAUCACCCAUGUUUAAUGCCGAGAGGCAACUAGGACCGGGCCUAGUACAU | 63.6 | 133 | – | 127 | –

From the supplement of paper PMC9170038
